In paper PMC3189933, “Acylpeptide Hydrolase Inhibition as Targeted Strategy to Induce Proteasomal Down-Regulation” (PLoS ONE, 2011):

Columns and labels:
[1] = target: Acylpeptide hydrolase from Sulfolobus solfataricus (Sulfolobus solfataricus)
[2] = target: Acylpeptide hydrolase from Sulfolobus solfataricus (Sulfolobus solfataricus); assay: enzyme inhibition kinetics (Lineweaver-Burk); APEHSs pre-incubated with the peptide 30 min at 80°C, 25 mM Tris-HCl pH 7.5, substrate acetyl-Leu-pNA; competitive inhibition

Acylpeptide hydrolase from Sulfolobus solfataricus (Sulfolobus solfataricus), sequence (Q7LX61 entry or part of it): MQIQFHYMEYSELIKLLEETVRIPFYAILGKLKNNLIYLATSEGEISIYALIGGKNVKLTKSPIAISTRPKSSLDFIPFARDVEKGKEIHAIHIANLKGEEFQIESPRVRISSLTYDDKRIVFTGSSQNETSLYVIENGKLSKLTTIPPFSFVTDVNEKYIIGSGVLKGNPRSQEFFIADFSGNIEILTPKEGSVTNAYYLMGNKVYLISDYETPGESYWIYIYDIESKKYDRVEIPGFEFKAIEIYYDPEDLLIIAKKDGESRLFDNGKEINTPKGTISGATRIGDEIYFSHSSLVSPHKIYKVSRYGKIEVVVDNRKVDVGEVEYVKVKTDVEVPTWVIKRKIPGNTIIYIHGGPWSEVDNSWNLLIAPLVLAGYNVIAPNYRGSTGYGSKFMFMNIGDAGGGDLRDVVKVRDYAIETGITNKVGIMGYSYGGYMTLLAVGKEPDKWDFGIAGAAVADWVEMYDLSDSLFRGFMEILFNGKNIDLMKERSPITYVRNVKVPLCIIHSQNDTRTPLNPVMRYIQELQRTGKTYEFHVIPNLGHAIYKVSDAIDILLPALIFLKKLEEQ

IC50 of inhibition of APEHSs activity (substrate Ac-Leu-pNA) [1]: 9.8 µM
Ki [2]: 1000 nM
Binder: H-TILLEIKNINAD-NH2 [SsCEI 2]
